Source: publication PMC5305259 (Molecular Biology of the Cell, 2017)

Target: T1, N-terminally tagged GFP cldn2 with the Linker domain between GFP and cldn2 (mouse, UniProt O88552 1-230)
T1 sequence: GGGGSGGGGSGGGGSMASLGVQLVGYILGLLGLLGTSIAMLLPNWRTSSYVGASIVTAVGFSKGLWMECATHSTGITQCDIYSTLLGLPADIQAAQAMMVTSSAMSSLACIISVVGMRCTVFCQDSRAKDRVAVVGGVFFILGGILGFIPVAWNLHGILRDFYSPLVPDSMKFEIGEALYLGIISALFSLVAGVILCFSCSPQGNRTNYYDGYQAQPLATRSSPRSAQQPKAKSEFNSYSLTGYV
Assay: pull-down

B1: myc-tagged N-terminal half of ZO-1 containing the PDZ domains (ZNA; amino acids 1-887) (domain or fragment, UniProt Q07157 1-887, looked up)
chain: MSARAAAAKSTAMEETAIWEQHTVTLHRAPGFGFGIAISGGRDNPHFQSGETSIVISDVLKGGPAEGQLQENDRVAMVNGVSMDNVEHAFAVQQLRKSGKNAKITIRRKKKVQIPVSRPDPEPVSDNEEDSYDEEIHDPRSGRSGVVNRRSEKIWPRDRSASRERSLSPRSDRRSVASSQPAKPTKVTLVKSRKNEEYGLRLASHIFVKEISQDSLAARDGNIQEGDVVLKINGTVTENMSLTDAKTLIERSKGKLKMVVQRDERATLLNVPDLSDSIHSANASERDDISEIQSLASDHSGRSHDRPPRRSRSRSPDQRSEPSDHSRHSPQQPSNGSLRSRDEERISKPGAVSTPVKHADDHTPKTVEEVTVERNEKQTPSLPEPKPVYAQVGQPDVDLPVSPSDGVLPNSTHEDGILRPSMKLVKFRKGDSVGLRLAGGNDVGIFVAGVLEDSPAAKEGLEEGDQILRVNNVDFTNIIREEAVLFLLDLPKGEEVTILAQKKKDVYRRIVESDVGDSFYIRTHFEYEKESPYGLSFNKGEVFRVVDTLYNGKLGSWLAIRIGKNHKEVERGIIPNKNRAEQLASVQYTLPKTAGGDRADFWRFRGLRSSKRNLRKSREDLSAQPVQTKFPAYERVVLREAGFLRPVTIFGPIADVAREKLAREEPDIYQIAKSEPRDAGTDQRSSGIIRLHTIKQIIDQDKHALLDVTPNAVDRLNYAQWYPIVVFLNPDSKQGVKTMRMRLCPESRKSARKLYERSHKLRKNNHHLFTTTINLNSMNDGWYGALKEAIQQQQNQLVWVSEGKADGATSDDLDLHDDRLSYLSAPGSEYSMYSTDSRHTSDYEDTDTEGGAYTDQELDETLNDEVGTPPESAITRSSEPVREDSSG
  fold binding against GFP cldn2 without the linker: ~3 fold
